Columns and labels:
Nuclease W S925R = biological target: T1, Nuclease W S925R (synthetic construct, S925R); assay: cell_activity; HEK293T; PAM AAA; settings: tags: N-term SV40 NLS, XTEN linker + C-term nucleoplasmin NLS
T1 chain: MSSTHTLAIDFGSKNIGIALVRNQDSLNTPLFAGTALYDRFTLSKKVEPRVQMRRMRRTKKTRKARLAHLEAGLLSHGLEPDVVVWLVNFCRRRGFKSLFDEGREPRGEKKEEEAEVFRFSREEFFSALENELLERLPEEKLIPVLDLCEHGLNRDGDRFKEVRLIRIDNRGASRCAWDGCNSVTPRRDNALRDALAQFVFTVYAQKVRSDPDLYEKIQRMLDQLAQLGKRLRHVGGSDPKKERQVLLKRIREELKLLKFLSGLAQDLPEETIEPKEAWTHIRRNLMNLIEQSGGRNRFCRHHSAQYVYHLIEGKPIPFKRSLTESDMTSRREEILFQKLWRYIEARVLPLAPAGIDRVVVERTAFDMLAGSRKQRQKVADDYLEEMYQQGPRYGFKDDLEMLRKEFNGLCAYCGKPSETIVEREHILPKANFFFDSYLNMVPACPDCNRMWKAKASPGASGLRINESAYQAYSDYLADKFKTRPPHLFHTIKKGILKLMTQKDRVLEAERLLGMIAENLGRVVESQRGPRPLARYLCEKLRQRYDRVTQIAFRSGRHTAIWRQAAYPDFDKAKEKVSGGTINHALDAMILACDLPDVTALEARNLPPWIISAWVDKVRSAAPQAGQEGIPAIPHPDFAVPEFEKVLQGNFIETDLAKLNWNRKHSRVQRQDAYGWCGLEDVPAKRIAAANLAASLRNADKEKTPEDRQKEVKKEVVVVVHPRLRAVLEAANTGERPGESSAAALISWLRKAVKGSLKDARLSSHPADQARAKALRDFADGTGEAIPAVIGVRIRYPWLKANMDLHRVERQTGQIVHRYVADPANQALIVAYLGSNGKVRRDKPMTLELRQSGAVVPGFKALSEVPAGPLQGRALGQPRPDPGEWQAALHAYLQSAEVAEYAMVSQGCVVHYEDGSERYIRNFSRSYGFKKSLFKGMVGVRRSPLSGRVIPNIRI
Method: Approximately 16 hours prior to transfection, 25,000 HEK293T cells in DMEM/10% FBS+Pen/Strep (D10 media) were plated into each well of a 96-well plate. On the day of transfection, the cells were 50-90% confluent. For each well to be transfected, a mixture of Lipofectamine 2000™ (ThermoFisher Scientific) and Opti-MEM™ (ThermoFisher Scientific) was prepared and incubated at room temperature for 5 minutes (Solution 1). After incubation, the Lipofectamine 2000™:Opti-MEM™ mixture was added to a separate mixture containing the CRISPR nuclease plasmid (NLS-tagged), RNA guide plasmid, and Opti-MEM™ (Solution 2). In the case of negative controls, the CRISPR nuclease plasmid was excluded. Solutions 1 and 2 were mixed by pipetting up and down, then incubated at room temperature for 25 minutes. Following incubation, the Solution 1 and 2 mixture was added dropwise to each well of a 96-well plate containing the cells. Approximately 72 hours post transfection, cells were trypsinized by adding TrypLE™ (Thermo Fisher Scientific) to the center of each well and incubating at 37° C. for approximately 5 minutes. D10 media was then added to each well and mixed to resuspend cells. […]
Cells were transfected, and samples were prepared for NGS as described in Example 1. Indel ratios, referring to the percentage of NGS reads comprising indels, were calculated for the reference and for each variant. […]

Nuclease H L54R = biological target: T2, Nuclease H L54R (synthetic construct, L54R); assay: cell_activity; HEK293T; PAM AAC; settings: tags: N-term SV40 NLS, XTEN linker + C-term nucleoplasmin NLS
T2 chain: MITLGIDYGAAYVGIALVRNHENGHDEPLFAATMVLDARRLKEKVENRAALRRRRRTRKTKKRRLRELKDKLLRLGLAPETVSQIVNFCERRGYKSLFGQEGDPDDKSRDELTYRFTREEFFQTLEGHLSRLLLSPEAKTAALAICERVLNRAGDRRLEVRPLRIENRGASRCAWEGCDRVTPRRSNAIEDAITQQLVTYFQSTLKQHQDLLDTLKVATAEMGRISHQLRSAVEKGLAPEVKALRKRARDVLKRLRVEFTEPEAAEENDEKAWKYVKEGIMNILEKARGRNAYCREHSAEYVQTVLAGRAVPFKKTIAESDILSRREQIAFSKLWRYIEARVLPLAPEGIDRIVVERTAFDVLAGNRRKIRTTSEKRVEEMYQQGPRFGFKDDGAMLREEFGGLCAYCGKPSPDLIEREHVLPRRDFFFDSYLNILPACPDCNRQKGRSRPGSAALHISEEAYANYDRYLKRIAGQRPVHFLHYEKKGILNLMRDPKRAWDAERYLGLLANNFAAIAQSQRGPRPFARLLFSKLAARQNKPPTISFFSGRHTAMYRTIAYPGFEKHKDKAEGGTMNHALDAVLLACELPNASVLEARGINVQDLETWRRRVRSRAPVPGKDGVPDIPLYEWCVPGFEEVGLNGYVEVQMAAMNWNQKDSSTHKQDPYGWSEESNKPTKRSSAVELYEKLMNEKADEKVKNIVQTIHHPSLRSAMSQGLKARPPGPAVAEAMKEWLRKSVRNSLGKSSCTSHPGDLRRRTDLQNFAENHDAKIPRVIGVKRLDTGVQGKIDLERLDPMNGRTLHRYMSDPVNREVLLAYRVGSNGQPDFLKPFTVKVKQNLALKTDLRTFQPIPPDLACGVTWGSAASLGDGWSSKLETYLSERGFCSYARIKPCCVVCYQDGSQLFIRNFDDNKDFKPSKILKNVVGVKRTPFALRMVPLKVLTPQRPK
Method: HEK293T cells were transfected with plasmids expressing the Nuclease H polypeptides and the gRNAs provided herein following the methods provided in Example 1 above. Gene editing efficiencies were determined by NGS following the methods also provided in Example 1. The NGS results were analyzed also following the methods provided in Example 1 above.
Indel ratios, referring to the percentage of NGS reads comprising indels, were calculated for the reference and for each variant. The indel ratios used for fold change calculations were the average of two technical replicates. To then calculate fold change in indel ratios, the indel ratio for each variant was divided by the indel ratio for the reference. […] Numbering is relative to the reference nuclease of SEQ ID NO: 64 (i.e., without an NLS).

B1: W EMX1-T5 RNA guide ; EMX1-T5 target (W) (ssRNA ; dsDNA)
RNA: UAAACUACAGUGGUGCCUGGGUUUCAGCUACCCUGAGUUUCUCAACUCCGUUGAGACUUCCUCAGGUUCAAGCUGAAAAGAGCAUCUGUCCGGAAGGACCACUCCGGGUUAGGGCAGACCCGGCUCUUGGGCUUCCUUGGUCUUUGACUCUGGAGGAAACCUUCCGGCGUGUCGCAAGACAAGAUGUGAGCCUG
DNA 1: TAAACTACAGTGGTGCCTGG
DNA 2: CCAGGCACCACTGTAGTTTA
fold change in indel ratio vs reference (Nuclease W S925R): 3.44 fold indel vs reference

B2: H AAVS1-T5 RNA guide ; AAVS1-T5 target (H) (ssRNA ; dsDNA)
RNA: GGCUAUAAUCCAUGCUGACCGUUUCAAUCAACCUGAUCUCUCUGCUUGCGCUGCAGGCUUCAUAAGAUCAGUAGGUUGAAAAGAGCAUCCGUCCGACAUGCACUCCGGGAUGGGGCAGUCCCGGCUCUUGCGGUUCCCGAUGCAGUUAUGUGUCCGCGGAACACGGUGUCGGACACGUCGCAAGACAGGAUGUGAGCCCAUUAUCCACAUUAGGAUCAAUGUACGCAUGAGCAGUCCGCAAUGCCGGGGACGCU
DNA 1: GGCTATAATCCATGCTGACC
DNA 2: GGTCAGCATGGATTATAGCC
fold change in indel ratio vs reference (Nuclease H L54R): 16.6 fold indel vs reference

From US20260275312, “CRISPR NUCLEASE POLYPEPTIDES AND GENE EDITING SYSTEMS COMPRISING SUCH” (ARBOR BIOTECHNOLOGIES, INC., published 2026)
